Data reported in publication PMC11535055, “ER-phagy restrains inflammatory responses through its receptor UBAC2” (The EMBO Journal, 2024).
Substitutions are numbered along the chain they refer to. Numbers in names are those of the source.

Key:
GABARAP = GABARAP (UniProt O95166); assay: co-IP Flag-GABARAP with HA-UBAC2; conditions: reference: wild type; sites S223
[1] = biological target: the molecule itself; assay: cross-linking; extracts of HeLa cells (also WT THP-1 macrophages and HT-29 cells) treated with TG or EBSS in the presence of Baf A1 (0.2 uM); 2 mM disuccinimidyl suberate (DSS), immunoblot for endogenous UBAC2
[2] = biological target: the molecule itself; assay: cross-linking; 293T cells transfected with WT UBAC2 or S223 mutants, TG (1 uM, 1 h) or EBSS (3 h) with Baf A1 (0.2 uM), with scramble or MARK2 siRNA; lysates treated with 2 mM DSS, immunoblot

UBAC2 (from UniProt Q8NBM4) S223A
binding against the reference (GABARAP): weaker

B1: UBAC2, endogenous (natural protein, human (endogenous in HeLa, THP-1, HT-29), UniProt Q8NBM4 36-344, looked up)
chain: HCQKLFVYDLHAVKNDFQIWRLICGRIICLDLKDTFCSSLLIYNFRIFERRYGSRKFASFLLGSWVLSALFDFLLIEAMQYFFGITAASNLPSGFLAPVFALFVPFYCSIPRVQVAQILGPLSITNKTLIYILGLQLFTSGSYIWIVAISGLMSGLCYDSKMFQVHQVLCIPSWMAKFFSWTLEPIFSSSEPTSEARIGMGATLDIQRQQRMELLDRQLMFSQFAQGRRQRQQQGGMINWNRLFPPLRQRQNVNYQGGRQSEPAAPPLEVSEEQVARLMEMGFSRGDALEALRASNNDLNVATNFLLQH
notes: UBAC2 endogenous in human cell lines; also called ubiquitin-associated domain-containing protein 2; source: endogenous, lysates of HeLa cells, THP-1-derived macrophages and HT-29 cells
stoichiometry N [1]: 2

B2: UBAC2 wild type, transfected (cross-linking experiments) (natural protein, human, UniProt Q8NBM4 36-344, looked up)
chain: B1 chain
notes: UBAC2, human; also called WT UBAC2
stoichiometry N [2]: 2

B3: UBAC2 S223D, transfected (cross-linking experiments) (natural protein, human, UniProt Q8NBM4 36-344, looked up)
chain: B1 chain with S188D
notes: UBAC2, human; also called S223D mutant form of UBAC2
stoichiometry N [2]: 2
